According to PMC11220742:

Columns and labels:
[1] = molecular target: HLA-A*2601 H chain (extracellular domain) refolded with human β2-microglobulin; experiment: in vitro refolding, gel filtration; settings: parent: est. 300; read off a plot
[2] = molecular target: HLA-A*0101 H chain (extracellular domain) refolded with human β2-microglobulin; experiment: in vitro refolding, gel filtration; settings: parent: est. 230; read off a plot

Row | Substance | response [1] | response [2]
1 | EVF peptide (SARS-CoV-2 S 340–351) E1R | 100 mAU | 
2 | EVF peptide (SARS-CoV-2 S 340–351) E1A | 290 mAU | 
3 | EVF peptide (SARS-CoV-2 S 340–351) F3D |  | 330 mAU
